Measurements reported in US7786083B2, “Metastin derivatives and use thereof” (Takeda Pharmaceutical Company Limited, priority 2006, dated 2010).
*1 amine or outer side, *2 acyl side, *3 side chain or, on linkers, in order; H or OH if unused. Where a SMILES comes first, the peptide text is derived from it. [ ]: non-standard residue; d: D form. Glyψ(E-CHCH)Leu = CC(C)C[C@H](/C=C/CN[*:1])C(=O)[*:2]; Ser(Me) = O-methylserine, COC[C@H](N[*:1])C(=O)[*:2]; Arg(Me) = CNC(=N)NCCC[C@H](N)C(=O)O; Dap(CONH2) = NC(=O)NC[C@H](N)C(=O)O; Ala(cPr) = N[C@@H](CC1CC1)C(=O)O; Hyp = O=C(O)[C@@H]1C[C@@H](O)CN1; tBuAla = CC(C)(C)C[C@H](N)C(=O)O; Cha = N[C@@H](CC1CCCCC1)C(=O)O; Cit = NC(=O)NCCC[C@H](N)C(=O)O; Cba = N[C@@H](CC1CCC1)C(=O)O; Nle = CCCC[C@H](N)C(=O)O; Dap = NC[C@H](N)C(=O)O

Target: metastin receptor (OT7T175) stably expressed on CHO/dhfr- cells (human or rat, not given)
Test: cell-based or functional assay
Settings: not given

Row | Molecule | Specific Activity (EC50 of test compound based on EC50 of Metastin (45-54)); agonist activity, intracellular calcium ion level, FLIPR (ratio to Metastin (45-54))
1 | Ac-[dY][Hyp][Dap(CONH2)]T[Cha]GLRW-NH2 (also: Gly6-Leu7 -CONH- replaced by -CH2CH2-) [des(1)-Ac-[D-Tyr2,Hyp3,Alb4,Thr5,Cha6,Gly7Ψ(CH2CH2)Leu8,Trp10]MS10] | 1.3
2 | Ac-[dY][Hyp]NTFGL[Arg(Me)]W-NH2 (also: Phe5-Gly6 amide bond replaced by -CH2S-) [des(1)-Ac-[D-Tyr2,Hyp3,Thr5,Phe6Ψ(CH2S)Gly7,Arg(Me)9,Trp10]MS10] | 0.7
3 | Ac-[dY][Hyp][Dap(CONH2)]T[Cha]G[Ala(cPr)][Arg(Me)]W-NH2 [des(1)-Ac-[D-Tyr2,Hyp3,Alb4,Thr5,Cha6,Ala(cPr)8,Arg(Me)9,Trp10]MS10] | 0.5
4 | Ac-[dY][Hyp][Dap(CONH2)]A[Cha]G[Ala(cPr)][Arg(Me)]W-NH2 [des(1)-Ac-[D-Tyr2,Hyp3,Alb4,Ala5,Cha6,Ala(cPr)8,Arg(Me)9,Trp10]MS10] | 0.5
5 | Ac-[dY][Hyp][Dap(CONH2)][Dap][Cha]G[Ala(cPr)][Arg(Me)]W-NH2 [des(1)-Ac-[D-Tyr2,Hyp3,Alb4,Dap5,Cha6,Ala(cPr)8,Arg(Me)9,Trp10]MS10] | 0.7
6 | Ac-[dY][Hyp]NT[Cba]G[Ala(cPr)][Arg(Me)]W-NH2 [des(1)-Ac-[D-Tyr2,Hyp3,Thr5,Ala(cBu)6,Ala(cPr)8,Arg(Me)9,Trp10]MS10] | 0.7
7 | Ac-[dY][Hyp][Dap(CONH2)]T[Cha]GL[Arg(Me)]W-NH2 (also: Gly6-Leu7 -CONH- replaced by -CH2CH2-) [des(1)-Ac-[D-Tyr2,Hyp3,Alb4,Thr5,Cha6,Gly7Ψ(CH2CH2)Leu8,Arg(Me)9,Trp10]MS10] | 1.1
8 | Ac-[dY][Hyp]NT[Cha]G[tBuAla][Arg(Me)]W-NH2 (SMILES CNC(=N)NCCC[C@H](NC(=O)[C@H](CC(C)(C)C)NC(=O)CNC(=O)[C@H](CC1CCCCC1)NC(=O)[C@@H](NC(=O)[C@H](CC(N)=O)NC(=O)[C@@H]1C[C@@H](O)CN1C(=O)[C@@H](Cc1ccc(O)cc1)NC(C)=O)[C@@H](C)O)C(=O)N[C@@H](Cc1c[nH]c2ccccc12)C(N)=O) [des(1)-Ac-[D-Tyr2,Hyp3,Thr5,Cha6,Leu(Me)8,Arg(Me)9,Trp10]MS10] | 1.4
9 | Ac-[dY][Hyp]NT[Cha]GLRW-NH2 (also: Gly6-Leu7 -CONH- replaced by -CH2CH2-) [des(1)-Ac-[D-Tyr2,Hyp3,Thr5,Cha6,Gly7Ψ(CH2CH2)Leu8,Trp10]MS10] | 1.1
10 | Ac-[dY][Hyp]NT[Cha]G[Cha][Arg(Me)]W-NH2 (SMILES CNC(=N)NCCC[C@H](NC(=O)[C@H](CC1CCCCC1)NC(=O)CNC(=O)[C@H](CC1CCCCC1)NC(=O)[C@@H](NC(=O)[C@H](CC(N)=O)NC(=O)[C@@H]1C[C@@H](O)CN1C(=O)[C@@H](Cc1ccc(O)cc1)NC(C)=O)[C@@H](C)O)C(=O)N[C@@H](Cc1c[nH]c2ccccc12)C(N)=O) [des(1)-Ac-[D-Tyr2,Hyp3,Thr5,Cha6,8,Arg(Me)9,Trp10]MS10] | 3.5
11 | Ac-[dY][Hyp]NT[Cha]G[Ala(cPr)]RW-NH2 (SMILES CC(=O)N[C@H](Cc1ccc(O)cc1)C(=O)N1C[C@H](O)C[C@H]1C(=O)N[C@@H](CC(N)=O)C(=O)N[C@H](C(=O)N[C@@H](CC1CCCCC1)C(=O)NCC(=O)N[C@@H](CC1CC1)C(=O)N[C@@H](CCCNC(=N)N)C(=O)N[C@@H](Cc1c[nH]c2ccccc12)C(N)=O)[C@@H](C)O) [des(1)-Ac-[D-Tyr2,Hyp3,Thr5,Cha6,Ala(cPr)8,Trp10]MS10] | 0.5
12 | Ac-[dY][Hyp]NT[Cha]GL[Arg(Me)]W-NH2 (also: Gly6-Leu7 -CONH- replaced by -CH2S-) [des(1)-Ac-[D-Tyr2,Hyp3,Thr5,Cha6,Gly7Ψ(CH2S)Leu8,Arg(Me)9,Trp10]MS10] | 1.7
13 | Ac-[dY]ENT[Cha]G[Ala(cPr)]RW-NH2 (SMILES CC(=O)N[C@H](Cc1ccc(O)cc1)C(=O)N[C@@H](CCC(=O)O)C(=O)N[C@@H](CC(N)=O)C(=O)N[C@H](C(=O)N[C@@H](CC1CCCCC1)C(=O)NCC(=O)N[C@@H](CC1CC1)C(=O)N[C@@H](CCCNC(=N)N)C(=O)N[C@@H](Cc1c[nH]c2ccccc12)C(N)=O)[C@@H](C)O) [des(1)-Ac-[D-Tyr2,Glu3,Thr5,Cha6,Ala(cPr)8,Trp10]MS10] | 0.4
14 | Ac-[dY][Hyp]NT[Cha]G[Cba][Arg(Me)]W-NH2 (SMILES CNC(=N)NCCC[C@H](NC(=O)[C@H](CC1CCC1)NC(=O)CNC(=O)[C@H](CC1CCCCC1)NC(=O)[C@@H](NC(=O)[C@H](CC(N)=O)NC(=O)[C@@H]1C[C@@H](O)CN1C(=O)[C@@H](Cc1ccc(O)cc1)NC(C)=O)[C@@H](C)O)C(=O)N[C@@H](Cc1c[nH]c2ccccc12)C(N)=O) [des(1)-Ac-[D-Tyr2,Hyp3,Thr5,Cha6,Ala(cBu)8,Arg(Me)9,Trp10]MS10] | 0.5
15 | Ac-[dY][Hyp]NT[Cha]G[Nle][Arg(Me)]W-NH2 (SMILES CCCC[C@H](NC(=O)CNC(=O)[C@H](CC1CCCCC1)NC(=O)[C@@H](NC(=O)[C@H](CC(N)=O)NC(=O)[C@@H]1C[C@@H](O)CN1C(=O)[C@@H](Cc1ccc(O)cc1)NC(C)=O)[C@@H](C)O)C(=O)N[C@@H](CCCNC(=N)NC)C(=O)N[C@@H](Cc1c[nH]c2ccccc12)C(N)=O) [des(1)-Ac-[D-Tyr2,Hyp3,Thr5,Cha6,Nle8,Arg(Me)9,Trp10]MS10] | 0.6
16 | Ac-[dY][Hyp][Dap(CONH2)]S[Cha]G[Ala(cPr)][Arg(Me)]W-NH2 [des(1)-Ac-[D-Tyr2,Hyp3,Alb4,Ser5,Cha6,Ala(cPr)8,Arg(Me)9,Trp10]MS10] | 0.5
17 | Ac-[dY][Hyp][Dap(CONH2)]G[Cha]G[Ala(cPr)][Arg(Me)]W-NH2 [des(1)-Ac-[D-Tyr2,Hyp3,Alb4,Gly5,Cha6,Ala(cPr)8,Arg(Me)9,Trp10]MS10] | 0.7
18 | Ac-[dY][Hyp]NTF[Ser(Me)]L[Arg(Me)]W-NH2 [des(1)-Ac-[D-Tyr2,Hyp3,Thr5,Ser(Me)7,Arg(Me)9,Trp10]MS10] | 1.2

System: metastin receptors
Test: Measurement of agonist activity by assaying changes in intracellular calcium ion level (FLIPR, Fluo-4 NW)
Type: cell-based, human
Settings: specific activity of the EC50 of a test compound based on the EC50 of Metastin (45-54), metastin receptor expression CHO cells
Experimental: 1) Preparation of Human Metastin and Rat Metastin Stable Expression Cell Lines
Human metastin and rat metastin stable expression cell lines were obtained by transfecting the expression plasmid for animal cells into CHO/dhfr^− cells using CellPhect Transfection Kit (manufactured by GE Healthcare). First, 240 μL of Buffer A (attached to CellPhect Transfection Kit) was added to 9.6 μg of plasmid DNA dissolved in 240 μL of distilled water followed by stirring. After the mixture was settled for 10 minutes, 480 μL of Buffer B (attached to CellPhect Transfection Kit) was added to the mixture, which was vigorously stirred to form liposomes containing the DNA. Then, 4×10^5 CHO/dhfr^− cells (obtained from ATCC) were inoculated on a 60 mm Petri dish. After culturing the cells in Ham's F-12 medium (manufactured by Nissui Seiyaku Co., Ltd.) supplemented with 10% fetal bovine serum (manufactured by BIO […], Inc.) at 37° C. for 2 days in 5% carbon dioxide gas, […] of the liposomes were dropwise added to the cells on the Petri dish. After culturing the cells in a CO2 incubator (5% CO2, 37° C.) for 6 hours, the cells were washed twice with serum-free Ham's F-12 medium and 3 mL of 15% glycerol was added to the cells on the Petri dish followed by treatment for 2 minutes. The cells were again washed twice with serum-free Ham's F-12 medium followed by incubation in Ham's F-12 medium supplemented with 10% fetal bovine serum in a CO2 incubator (5% CO2, 37° C.) for 15 hours. The cells were dispersed by trypsin treatment to recover from the Petri dish. The recovered cells were inoculated on a 6-well plate in 1.25×10^4 cells each/well and incubation was initiated in a CO2 incubator (5% CO2, 37° C.) in Dulbecco's modified Eagle medium (DMEM, manufactured by Nissui Seiyaku) containing 10% dialyzed fetal bovine serum (manufactured by JRH BIOSCIENCES, Inc.). The plasmid-transfected CHO transformants grew in the medium but the non-transfected cells gradually died, accordingly the medium was exchanged on Days 1 and 2 after the initiation of incubation to remove the dead cells. Approximately 20 colonies of the CHO transformants that kept growing on Days 8 to 10 after the incubation were isolated. From the cells in these colonies, cells showing high reactivity with the ligand peptide metastin (hereinafter merely referred to as h175 KB19 and h175 KB29 strains) were selected to provide for the following experiment.
Human metastin expression CHO cell line (h175 KB19 strain is described in a separate section) and rat metastin expression CHO cell line (h175 KB29 strain is described in a separate section) were seeded in a 96-well plate (type 3904, manufactured by Corning) at 3×10^4 cells/well, followed by incubation in a CO2 incubator (5% CO2, 37° C.) for 24 hours. For the medium, MEMα medium (nucleic acid-free, manufactured by Nikken Bio Medical Laboratory) supplemented with dialyzed 10% fetal bovine serum (manufactured by Thermo, MultiSer) was used.
3) Loading with Fluo-4 NW in Cells
As an assay buffer, 1× Hanks' balanced salt solution (HBSS, manufactured by GIBCO) supplemented with 0.1% BSA, 20 mM HEPES (pH 7.4, manufactured by GIBCO) and 1 mM Probenecid (manufactured by Molecular Probes) was prepared. The medium in the wells of the cell-seeded plate was removed and 100 μL each of the assay buffer (kept warm at 37° C.) was added to each well. After 10 mL of the assay buffer (the volume for assaying two plates) was charged in one Fluo-4NW dye mix (Component A, Fluo-4 NW calcium assay kit (starter pack), manufactured by Molecular Probes) bottle, the mixture was gently stirred to prepare the Fluo-4 NW loading solution. This loading solution was charged in each well by 50 μl each and reacted in a CO2 incubator (5% CO2, 37° C.) for 30 minutes for loading with Fluo-4 NW into the cells. Subsequently, the cells were settled at room temperature (25° C.) for 15 minutes and then used for assay.
4) Measurement of Agonist Activity […]

Row | Molecule | Specific Activity
19 | CNC(=N)NCCC[C@H](NC(=O)[C@@H](/C=C/CNC(=O)[C@H](CC1CCCCC1)NC(=O)[C@@H](NC(=O)[C@H](CCCNC(N)=O)NC(=O)[C@@H]1C[C@@H](O)CN1C(=O)[C@@H](Cc1ccc(O)cc1)NC(C)=O)[C@@H](C)O)CC(C)C)C(=O)N[C@@H](Cc1c[nH]c2ccccc12)C(N)=O [Compound No. 914, des(1)-Ac-[D-Tyr2,Hyp3,Cit4,Thr5,Cha6,Gly7Ψ((E)CH═CH)Leu8,Arg(Me)9,Trp10]MS10] (Ac-[dY][Hyp][Cit]T[Cha][Glyψ(E-CHCH)Leu][Arg(Me)]W-NH2) | 0.9
